Target: plasma membrane calcium ATPase PMCA4b, P23634
Assay: cell-based or functional assay

plasma membrane calcium ATPase PMCA4b, P23634, sequence (P23634 whole entry): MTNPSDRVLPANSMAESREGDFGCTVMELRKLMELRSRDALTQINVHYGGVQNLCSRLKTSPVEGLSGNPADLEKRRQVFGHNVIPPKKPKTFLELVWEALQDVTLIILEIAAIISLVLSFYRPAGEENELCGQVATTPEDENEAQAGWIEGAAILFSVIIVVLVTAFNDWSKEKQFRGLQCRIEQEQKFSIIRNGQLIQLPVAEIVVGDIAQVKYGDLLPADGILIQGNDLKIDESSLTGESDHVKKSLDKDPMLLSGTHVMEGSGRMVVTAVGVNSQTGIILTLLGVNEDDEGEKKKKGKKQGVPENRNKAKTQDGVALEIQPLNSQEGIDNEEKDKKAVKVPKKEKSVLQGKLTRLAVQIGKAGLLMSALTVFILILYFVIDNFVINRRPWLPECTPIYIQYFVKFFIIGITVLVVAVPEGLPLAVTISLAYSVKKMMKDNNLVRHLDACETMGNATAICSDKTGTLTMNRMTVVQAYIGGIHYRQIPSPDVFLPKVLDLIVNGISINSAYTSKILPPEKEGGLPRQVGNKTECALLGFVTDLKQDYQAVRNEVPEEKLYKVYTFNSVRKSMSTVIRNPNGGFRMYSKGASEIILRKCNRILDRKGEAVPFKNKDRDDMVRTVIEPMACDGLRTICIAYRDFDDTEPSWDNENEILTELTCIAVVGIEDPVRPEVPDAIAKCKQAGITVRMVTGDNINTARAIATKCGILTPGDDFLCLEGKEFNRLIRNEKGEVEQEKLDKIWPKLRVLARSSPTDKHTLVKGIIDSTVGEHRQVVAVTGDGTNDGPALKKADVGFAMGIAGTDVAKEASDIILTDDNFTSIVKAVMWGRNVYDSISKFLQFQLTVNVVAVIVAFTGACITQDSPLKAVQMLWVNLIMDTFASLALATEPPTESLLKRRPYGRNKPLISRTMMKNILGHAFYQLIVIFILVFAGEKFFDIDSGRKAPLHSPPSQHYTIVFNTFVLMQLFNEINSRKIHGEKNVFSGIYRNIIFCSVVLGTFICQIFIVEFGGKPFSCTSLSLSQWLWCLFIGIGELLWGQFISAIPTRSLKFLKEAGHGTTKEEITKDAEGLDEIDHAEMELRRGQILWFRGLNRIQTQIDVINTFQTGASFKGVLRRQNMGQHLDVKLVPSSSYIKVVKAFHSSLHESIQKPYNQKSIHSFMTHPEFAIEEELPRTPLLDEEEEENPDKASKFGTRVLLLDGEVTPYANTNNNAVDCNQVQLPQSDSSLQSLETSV

decrease in RNLS dependent ERK phosphorylation in MiaPaCa2 cells after PMCA4b siRNA, western blot: 70%
Binder: CIRFVSIDNKKRNIESSEIG [RNLS peptide RP-220]

— patent publication US20210024652A1
